Assay results taken from patent publication US20170146535A1 (SPRING BIOSCIENCE, published 2017).

molecular target: human indoleamine 2,3-dioxygenase 1 (IDO1) (human, UniProt P14902 1-403); test: IHC on FFPE HeLa cells (untreated or IFN-gamma treated) and FFPE human tissues
Method: The anti-IDO1 antibodies generated in Example 1 were used in further IHC analyses. For IHC analyses, tissue sections were incubated with the antibodies for 16 min followed by standard washes and secondary detection with Optiview DAB IHC Detection Kit (Ventana Medical System, Inc., Tucson, Ariz.). The specificity of each antibody was assessed on formalin-fixed, paraffin-embedded (FFPE) cells with different IDO1 expression levels (human cervical cancer HeLa cells that are either untreated as control (negative) or treated with interferon-γ (high expression); see FIGS. 2A-2b) or from different tissue types (Tonsil, Thymus, Colon, Endometrial adenocarcinoma, Ovarian adenocarcinoma, Pancreatic adenocarcinoma, and Stomach adenocarcinoma; see FIGS. 3A-3G).

Sequence of human indoleamine 2,3-dioxygenase 1 (IDO1) (P14902 whole entry): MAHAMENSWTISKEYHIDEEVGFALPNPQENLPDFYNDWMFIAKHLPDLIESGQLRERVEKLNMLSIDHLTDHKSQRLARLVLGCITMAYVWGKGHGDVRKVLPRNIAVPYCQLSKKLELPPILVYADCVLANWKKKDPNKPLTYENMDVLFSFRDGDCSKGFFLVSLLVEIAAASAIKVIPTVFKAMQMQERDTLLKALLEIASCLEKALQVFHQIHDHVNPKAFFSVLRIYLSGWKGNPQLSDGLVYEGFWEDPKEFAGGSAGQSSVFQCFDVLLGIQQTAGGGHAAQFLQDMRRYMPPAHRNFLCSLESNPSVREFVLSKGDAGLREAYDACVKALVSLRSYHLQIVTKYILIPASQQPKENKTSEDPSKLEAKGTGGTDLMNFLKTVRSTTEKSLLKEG

| binding result | Binder |
| --- | --- |
| binds | J6H15L16 antibody (antibody, V domains shown, the constant regions are not) VH: QEQLVESGGGLVQPEGSLTLTCTASGFSFSTNYWICWVRQAPGKGLEWTACIYIGGRGSIYYASWAKGRFTISKTSSTTVTLQMTSLTAADTATYFCARDLTTAYGATDLRFWGPGTLVTVSS VL: DVVMTQTPSPVSAAVGGTVSISCQSSQSVGDNNRLSWFQQKPGQPPKLLIYSASTLASGVPSRFKGSGSGTEYTLTISGVQCDDAATYYCLGEFSGSDEDVFGGGTEVVVK |
| binds | anti-IDO1 antibody SP260 (antibody, V domains shown, the constant regions are not) VH: QEQLVESGGGLVQPEGSLTLTCTASGFSFSTNYWICWVRQAPGKGLEWTACIYVGGRGSIYYASWAKGRFTISKTSSTTVTLQMTSLTAADTATYFCARDLTTAYGATDLRFWGPGTLVTVSS VL: DVVMTQTPSPVSAAVGGTVSISCQSSQSVGDNNRLSWFQQKPGQPPKLLIYSASTLASGVPSRFKGSGSGTEYTLTISGVQCDDAATYYCLGEFSGSDEDVFGGGTEVVVK |
| binds | J6H20L16 antibody (antibody, V domains shown, the constant regions are not) VH: QEQLVESGGGLVQPEGSLTLTCTASGFSFSTNYWICWVRQAPGKGLEWTACIYIGGRGSIYYASWAKGRFTISKTSSTTVTLQMTSLTAADTATYSCARDLTTAYGATDLRFWGPGTLVTVSS VL: DVVMTQTPSPVSAAVGGTVSISCQSSQSVGDNNRLSWFQQKPGQPPKLLIYSASTLASGVPSRFKGSGSGTEYTLTISGVQCDDAATYYCLGEFSGSDEDVFGGGTEVVVK |
| binds | J6H12L16 antibody (antibody, V domains shown, the constant regions are not) VH: QEQLVESGGGLVRPEGSLTLTCTASGFSFSTNYWICWVRQAPGKGLEWTACIYIGGRGSIYYASWAKGRFTISKTSSTTVTLQMTSLTAADTATYFCARDLTTAYGATDLRFWGPGTLVTVSS VL: DVVMTQTPSPVSAAVGGTVSISCQSSQSVGDNNRLSWFQQKPGQPPKLLIYSASTLASGVPSRFKGSGSGTEYTLTISGVQCDDAATYYCLGEFSGSDEDVFGGGTEVVVK |
